Measurements from PMC5800818 (2018).
Changes are numbered by the printed parent chain. Values belong to the binder of their own block, whether it stands above or below them.

How the values were obtained:
[1] = target: T1, rhodamine-labeled Mdm2^216–302 (human, UniProt Q00987-11 216-302, rhodamine label (site not stated)); assay: FP
[2] = target: T1, rhodamine-labeled Mdm2^216–302; assay: FP; remark: listed apart in the source
[3] = target: T1, rhodamine-labeled Mdm2^216–302; assay: FP; remark: listed apart in the source
[4] = target: T1, rhodamine-labeled Mdm2^216–302; assay: FP; GPpY peptide preassembled with PTBi

T1 sequence (Q00987 210-296): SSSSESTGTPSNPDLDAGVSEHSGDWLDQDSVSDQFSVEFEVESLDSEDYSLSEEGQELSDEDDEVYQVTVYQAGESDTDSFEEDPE

B1: Numb isoform-1 full-length, purified (natural protein)
chain: MNKLRQSFRRKKDVYVPEASRPHQWQTDEEGVRTGKCSFPVKYLGHVEVDESRGMHICEDAVKRLKAERKFFKGFFGKTGKKAVKAVLWVSADGLRVVDEKTKDLIVDQTIEKVSFCAPDRNFDRAFSYICRDGTTRRWICHCFMAVKDTGERLSHAVGCAFAACLERKQKREKECGVTATFDASRTTFTREGSFRVTTATEQAEREEIMKQMQDAKKAETDKIVVGSSVAPGNTAPSPSSPTSPTSDATTSLEMNNPHAIPRRHAPIEQLARQGSFRGFPALSQKMSPFKRQLSLRINELPSTMQRKTDFPIKNAVPEVEGEAESISSLCSQITNAFSTPEDPFSSAPMTKPVTVVAPQSPTFQANGTDSAFHVLAKPAHTALAPVAMPVRETNPWAHAPDAANKEIAATCSGTEWGQSSGAASPGLFQAGHRRTPSEADRWLEEVSKSVRAQQPQASAAPLQPVLQPPPPTAISQPASPFQGNAFLTSQPVPVGVVPALQPAFVPAQSYPVANGMPYPAPNVPVVGITPSQMVANVFGTAGHPQAAHPHQSPSLVRQQTFPHYEASSATTSPFFKPPAQHLNGSAAFNGVDDGRLASADRHTEVPTGTCPVDPFEAQWAALENKSKQRTNPSPTNPFSSDLQKTFEIEL
Kd [2]: 5.6 µM

B4: PTBi F71-72-75-76A (protein)
chain: SRPHQWQTDEEGVRTGKCSFPVKYLGHVEVDESRGMHICEDAVKRLKAERKAAKGAAGKTGKKAVKAVLWVSADGLRVVDEKTKDLIVDQTIEKVSFCAPDRNFDRAFSYICRDGTTRRWICHCFMAVKDTGERLSHAVGCAFAACLERKQKREKE
Kd [3]: 60.6 µM

B6: Numb-PTBi (Numb^20–175), purified (domain or fragment)
chain: B4 chain with A52F, A53F, A56F, A57F
Kd [2]: 5.5 µM
Kd [1]: 6.1 µM

Binder: KRLKAERKFFKGFFGKTGKK (other) [thioredoxin-scaffolded Numb^63–82, His fusion]
Kd [1]: 86 µM

B7: Numb-PTBo, purified (domain or fragment)
chain: SRPHQWQTDEEGVRTGKCSFPVKYLGHVEVDESRGMHICEDAVKRLKATGKKAVKAVLWVSADGLRVVDEKTKDLIVDQTIEKVSFCAPDRNFDRAFSYICRDGTTRRWICHCFMAVKDTGERLSHAVGCAFAACLERKQKREKE
Kd [2]: 155 µM

Other lines, results leading:

Kd [1]: 5.1 µM
Binder: GMHICEDAVKRLKAERKFFKGFFGKTGKKAVKAVLWVS (other) [thioredoxin-scaffolded Numb^54–91, His fusion]

Kd [3]: 43.5 µM
B2: PTBi F75-76A (protein)
chain: B4 chain with A52F, A53F

Kd [3]: 29 µM
B3: PTBi F71-72A (protein)
chain: B4 chain with A56F, A57F

Kd [4]: 5.8 µM
B5: PTBi in complex with GPpY (complex)
chain 1: B4 chain with A52F, A53F, A56F, A57F
chain 2: AYIGPYL
modifications: phosphotyrosine at position 6 (AYIGPpYL)
